Experiments:
[1] = biological target: T1, human PD-L1/His fusion protein (human, UniProt Q9NZQ7 19-239); assay: BLI Octet RED96, antibody on AHC sensor, single conc. PD-L1/His; test group 2
Method: (§1) All 15 antibodies in Table 13 were assayed for and ranked by dissociation rate constant (koff). […] Briefly, antibodies were characterized for affinities and binding kinetics by Octet®RED96 biolayer interferometry (Pall ForteBio LLC). Antibodies were captured by Anti-hIgG Fc Capture (AHC) Biosensors (Pall) at a concentration of 100 nM for 30 seconds. Sensors were then dipped into running buffer (1×pH 7.2 PBS, 0.05% Tween 20, 0.1% BSA) for 60 seconds to check the baseline. Binding was measured by dipping sensors into a single concentration of recombinant human PD-L1/His fusion protein (Novoprotein). Dissociation was followed by dipping sensors into running buffer for 1200 seconds. The association and dissociation curves were fitted to a 1:1 Langmuir binding model using ForteBio Data Analysis software (Pall). […] The off-rate ratio serves as a data normalization. Accordingly, in each test group, the off-rate ratios of the humanized antibodies can be compared with that of the chimeric antibody, and the off-rate ratios of each of the humanized antibodies can be compared to one another within all test groups.

[2] = biological target: T1, human PD-L1/His fusion protein; assay: BLI Octet RED96, antibody on AHC sensor, PD-L1/His in solution
Method: Binding of antibodies to PD-L1 was also assessed using biolayer interferometry (BLI) using an Octet® RED96 sensor device (Pall ForteBio LLC). Antibodies were captured by anti-hIgG Fc capture (AHC) Biosensors (Pall) at a concentration of 100 nM for 30 seconds. Sensors were then dipped into running buffer (1×pH7.2 PBS, 0.05% Tween 20, 0.1% BSA) for 60 seconds to check the baseline. Binding was measured by dipping sensors into a series of diluted concentrations of recombinant human PD-L1/His fusion protein. Dissociation was followed by dipping sensors into running buffer for 1200 seconds. The association and dissociation curves were fitted to a 1:1 Langmuir binding model using ForteBio Data Analysis software (Pall). The equilibrium dissociation constant KD (molarity) of the reaction between antibodies and related target proteins was then calculated from the kinetic rate constants using the formula KD=koff/kon.

[3] = biological target: human PD-L1/Fc Fusion Protein (human); assay: RBA ELISA: coated PD-L1/Fc, competitor biotinylated human PD-1
human PD-L1/Fc Fusion Protein (human), sequence (chain, as listed by the source limits assumed): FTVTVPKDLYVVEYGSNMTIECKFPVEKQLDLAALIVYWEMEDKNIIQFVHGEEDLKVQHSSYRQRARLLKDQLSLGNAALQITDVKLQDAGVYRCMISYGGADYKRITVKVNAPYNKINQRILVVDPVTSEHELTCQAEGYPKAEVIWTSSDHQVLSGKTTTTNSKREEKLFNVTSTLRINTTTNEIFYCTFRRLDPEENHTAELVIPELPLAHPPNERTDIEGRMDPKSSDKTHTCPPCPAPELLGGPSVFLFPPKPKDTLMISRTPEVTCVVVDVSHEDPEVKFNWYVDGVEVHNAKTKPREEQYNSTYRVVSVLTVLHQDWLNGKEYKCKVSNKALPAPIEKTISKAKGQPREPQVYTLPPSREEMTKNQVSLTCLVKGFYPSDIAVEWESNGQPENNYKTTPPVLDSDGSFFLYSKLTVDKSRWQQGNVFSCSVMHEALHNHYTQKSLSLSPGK
Method: ELISA plates were coated with 100 μl of 1 μg/ml of human PD-L1/Fc in PBS and incubated overnight at 4° C. Plates were washed four times in washing buffer (PBS containing 0.05% Tween 20) and blocked for 1 hour at 37° C. with 200 μl per well of blocking buffer (1% BSA in PBS containing 0.05% Tween 20). […] A human IgG was included as negative control. The signal was developed by adding streptavidin-HRP (Cat. No. S2468, Sigma) (100 μl/well at 1:5000 dilution) and incubating for 40 minutes at 37° C., followed by washing four times in washing buffer. Then, 100 μl of TMB solution were added per well. Following color development, the reaction was stopped with 1 N HCl, and absorbance at 450 nm was measured. The data were processed by GraphPad software, and IC50 values were calculated. […] The signal reduction induced by antibody samples was normalized to inhibition percentage, where the negative control was 0% inhibition, and the absolute value of signal reduction of each antibody divided by the signal of the negative control equals the percent inhibition by the antibody.

[4] = biological target: T1, human PD-L1/His fusion protein; assay: ELISA, coated human PD-L1 protein, anti-human Fc detection
Method: (§2) The ability of an antibody to bind human or cynomolgus (cyno) PD-L1 (binding activity) was determined by ELISA. ELISA plates were incubated overnight at 4° C. with 50 μl of the human or cyno PD-L1 protein described above diluted in PBS buffer, pH 7.4, at 1 μg/ml. Plates were washed four times in washing buffer (PBS containing 0.05% Tween 20) and blocked for 1 hour at 37° C. with 200 μl per well of blocking buffer (1% BSA in PBS containing 0.05% Tween 20). After blocking buffer was removed, diluted purified antibodies (200 nM and 1:5 serial dilutions to provide 7 concentrations of each antibody) were added to the wells at 100 μl per well and incubated at 37° C. for 1 hour. The wells were washed four times with washing buffer, and anti-human IgG (Fc-specific) HRP-conjugated antibody (Sigma), diluted 1:10,000, was added to the wells at 100 μl per well. The plates were incubated for 1 hour at 37° C. and washed four times in washing buffer. 100 μl of tetramethylbenzidine (TMB) chromogenic solution were added per well. Following color development, the reaction was stopped with 1 N HCl, and absorbance at 450 nm was measured on a VARIOSKAN™ LUX multimode microplate reader (ThermoFisher Scientific, Vataa, Finland). The data were processed by GraphPad software, and EC50 values were calculated. The EC50 for binding activity according to this ELSA is the concentration at which an antibody induces a response halfway between the baseline and maximum and indicates the binding ability of the antibody.

[5] = biological target: T1, human PD-L1/His fusion protein; assay: BLI Octet RED96, antibody on AHC sensor, single conc. PD-L1/His; test group 1
Method: as §1

[6] = biological target: T2, cynomolgus (cyno) PD-L1/His fusion protein (cynomolgus, UniProt G7PSE7 19-239); assay: ELISA, coated cyno PD-L1 protein
T2 construct: also called cynomolgus PD-L1; not shown: His tag
T2 sequence (G7PSE7 entry or part of it): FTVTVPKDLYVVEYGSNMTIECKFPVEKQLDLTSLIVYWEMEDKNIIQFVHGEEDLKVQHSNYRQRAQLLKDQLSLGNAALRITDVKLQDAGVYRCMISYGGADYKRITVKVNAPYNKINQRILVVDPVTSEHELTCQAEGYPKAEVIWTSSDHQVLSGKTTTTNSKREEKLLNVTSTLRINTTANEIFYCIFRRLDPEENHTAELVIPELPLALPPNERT
Method: as §2

[7] = biological target: T1, human PD-L1/His fusion protein; assay: BLI off-rate; test group 3 (reference itself)
Method: as §1

[8] = biological target: T1, human PD-L1/His fusion protein; assay: BLI off-rate; test group 1 (reference itself)
Method: as §1

[9] = biological target: T1, human PD-L1/His fusion protein; assay: BLI Octet RED96, antibody on AHC sensor, single conc. PD-L1/His; test group 3
Method: as §1

[10] = biological target: T3, human PD-L1 on the cell surface (CHO-K1 cells stably expressing human PD-L1) (human, UniProt Q9NZQ7 19-290); assay: FACS on CHO-K1/hPD-L1 cells
T3 construct: whole, on cells; Also used here for PD-L1 on the monocyte-derived dendritic cells of the MLR assay (functional rows); also called CHO-K1/PD-L1; CHOK1-PD-L1
T3 sequence (Q9NZQ7 19-290): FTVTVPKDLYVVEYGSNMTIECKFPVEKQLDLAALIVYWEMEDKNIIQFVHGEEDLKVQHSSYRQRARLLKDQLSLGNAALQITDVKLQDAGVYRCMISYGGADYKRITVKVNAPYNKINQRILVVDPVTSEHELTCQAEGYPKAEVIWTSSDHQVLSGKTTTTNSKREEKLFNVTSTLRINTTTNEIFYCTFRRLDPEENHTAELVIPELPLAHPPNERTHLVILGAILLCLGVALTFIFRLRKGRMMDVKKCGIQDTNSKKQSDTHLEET
Method: The ability of the purified antibodies to bind to cell membrane human PD-L1 was determined by FACS analysis. CHO-K1 cells stably expressing human PD-L1 (CHO-K1/hPD-L1 cells) were resuspended in PBS containing 2% FBS (FACS buffer) and seeded at 1×10⁵ cells/well into 96-well round-bottomed plates (Corning; Cat. No. 3799). […] The assay plate was then read on a flow cytometer. The data were processed by GraphPad software, and EC50 values were calculated. The EC50 for binding activity according to this FACS analysis is the concentration at which of an antibody induces a response halfway between the baseline and maximum and reflects the binding ability of the antibody.

[11] = biological target: T1, human PD-L1/His fusion protein; assay: BLI off-rate; test group 2 (reference itself)
Method: as §1

[12] = biological target: T2, cynomolgus (cyno) PD-L1/His fusion …; assay: BLI Octet RED96, cyno PD-L1; cyno PD-L1, not human

T1 sequence (Q9NZQ7 19-239 limits assumed): as the sequence (G7PSE7 entry or part of it) above, with T33A, S34A, N62S, Q68R, R82Q, L173F, A185T, I192T, L215H counted along it

- koff [1]: 0.00179 s⁻¹
- Kd [2]: 0.261 nM
- IC50 [3]: 1.09 nM
- Inhibition (percent) [3]: 97.4%
- EC50 [4]: 0.14 nM
- koff [5]: 0.00123 s⁻¹
- EC50 [6]: 0.1 nM
- Off-Rate Ratio to that of EM0005-86c [7]: 100%
- Off-Rate Ratio to that of EM0005-86c [8]: 100%
- koff [9]: 0.00103 s⁻¹
- EC50 [10]: 0.22 nM
- Off-Rate Ratio to that of EM0005-86c [11]: 100%
- Kd [12]: 0.373 nM
B1: EM0005-mAb86c (antibody, human IgG1, kappa, V domains shown)
VH: QVQLQQSGAELVRPGSSVKMSCKTSGYTFTTYGINWVKQRPGQGLEWIGYIYIGNGYTEYNEKFKGKATLTSDPSSRTAYMQLSSLTSEDSAIYFCARDLMVIAPKTMDYWGQGTSVTVSS
VL: DIQMNQSHKFMSTSVGDRVSITCKASQDVGTAVAWYQQKPGQSPKLLIYWASTRHTGVPDRFTGGGSGTDFTLTISNVQSEDLADYFCQQYSSYPYTFGGGTKLEMKR
notes: Chimeric full-length IgG1; also called EM0005-86c; EM0005-86C

Reference: patent US20230242675A1 (SHANGHAI EPIMAB BIOTHERAPEUTICS, published 2023)
